Consider 56 variants from the RNAGym collection of RNA variant scans (doi:10.7554/elife.90254).

To fix the notation:
B1: LINE1-mini (parent)
chain: GGCAGAGCUCAACACAGCGUGGCAAAGUGGCUGUGGCUAGACUGCC

The variants in this data set derive from B1. The experiment in a line: self-cleavage, relative activity (ratio to wild type); higher = more cleavage; in vitro, sequencing; the parent is a self-cleaving ribozyme.
With GGCAGAGCUCAACACAGCGUGGCAAAGUGGCUGUUGCUACACUGCC [G35U G40C], the self-cleavage worked out at 0.06.

As to GGCAGAGCUCAACACAGCGUGGCAAAGUGGCUGUUGCUAUACUGCC [G35U G40U], the self-cleavage amounted to 0.12.

Take GGCAGAGCUCAACACAGCGUGGCAAAGUGGCUGUUGCUAAACUGCC [G35U G40A]: the self-cleavage is 0.09.

Take GGCAGAGCUCAACACAGCGUGGCAAAGUGGCUGUUGCUAGACAGCC [G35U U43A]: the self-cleavage came to 0.15.

Turning to GGCAGAGCUCAACACAGCGUGGCAAAGUGGCUGUUGCUAGACCGCC [G35U U43C], the self-cleavage was 0.05.

Turning to GGCAGAGCUCAACACAGCGUGGCAAAGUGGCUGUUGCUAGACGGCC [G35U U43G], the self-cleavage was determined as 0.07.

Take GGCAGAGCUCAACACAGCGUGGCAAAGUGGCUGUGCCUUGACUGCC [G36C A39U]: the self-cleavage was determined as 0.23.

On to GGCAGAGCUCAACACAGCGUGGCAAAGUGGCUGUGCCUGGACUGCC [G36C A39G], for which the self-cleavage is 0.07.

As for GGCAGAGCUCAACACAGCGUGGCAAAGUGGCUGUGCCUCGACUGCC [G36C A39C], the self-cleavage was determined as 0.05.

GGCAGAGCUCAACACAGCGUGGCAAAGUGGCUGUGCCUAGAGUGCC [G36C C42G]: the self-cleavage is 0.07.

As for GGCAGAGCUCAACACAGCGUGGCAAAGUGGCUGUGCCUAGAUUGCC [G36C C42U], the self-cleavage was determined as 0.09.

GGCAGAGCUCAACACAGCGUGGCAAAGUGGCUGUGCCUAGAAUGCC [G36C C42A]: the self-cleavage was found to be 0.05.

Consider GGCAGAGCUCAACACAGCGUGGCAAAGUGGCUGUUGUUAGACUGCC [G35U C37U], for which the self-cleavage is 0.06.

Regarding GGCAGAGCUCAACACAGCGUGGCAAAGUGGCUGUUGGUAGACUGCC [G35U C37G], the self-cleavage came to 0.05.

In the case of GGCAGAGCUCAACACAGCGUGGCAAAGUGGCUGUUGAUAGACUGCC [G35U C37A], the self-cleavage is 0.23.

As for GGCAGAGCUCAACACAGCGUGGCAAAGUGGCUGUUGCUGGACUGCC [G35U A39G], the self-cleavage came to 0.22.

Turning to GGCAGAGCUCAACACAGCGUGGCAAAGUGGCUGUUGCUCGACUGCC [G35U A39C], the self-cleavage turned out to be 0.11.

For the variant GGCAGAGCUCAACACAGCGUGGCAAAGUGGCUGUUGCUUGACUGCC [G35U A39U], the self-cleavage worked out at 0.1.

Regarding GGCAGAGCUCAACACAGCGUGGCAAAGUGGCUGUGCCUAGACUGAC [G36C C45A], the self-cleavage is 0.07.

In the case of GGCAGAGCUCAACACAGCGUGGCAAAGUGGCUGUGCCUAGACUGUC [G36C C45U], the self-cleavage was found to be 0.29.

Consider GGCAGAGCUCAACACAGCGUGGCAAAGUGGCUGUGCCUAGACUGGC [G36C C45G], for which the self-cleavage is 0.04.

Turning to GGCAGAGCUCAACACAGCGUGGCAAAGUGGCUGUGUCUAGACUGAC [G36U C45A], the self-cleavage came to 0.15.

As for GGCAGAGCUCAACACAGCGUGGCAAAGUGGCUGUGUCUAGACUGGC [G36U C45G], the self-cleavage was determined as 0.12.

In the case of GGCAGAGCUCAACACAGCGUGGCAAAGUGGCUGUGCCUAGACUGCA [G36C C46A], the self-cleavage came out at 0.13.

As to GGCAGAGCUCAACACAGCGUGGCAAAGUGGCUGUGCCUAGACUGCU [G36C C46U], the self-cleavage was determined as 0.05.

For the variant GGCAGAGCUCAACACAGCGUGGCAAAGUGGCUGUGCCUAGACUGCG [G36C C46G], the self-cleavage was 0.08.

As for GGCAGAGCUCAACACAGCGUGGCAAAGUGGCUGUGUCUAGAGUGCC [G36U C42G], the self-cleavage came out at 0.03.

GGCAGAGCUCAACACAGCGUGGCAAAGUGGCUGUGUCUAGAUUGCC [G36U C42U]: the self-cleavage worked out at 0.06.

With GGCAGAGCUCAACACAGCGUGGCAAAGUGGCUGUGUCUAGAAUGCC [G36U C42A], the self-cleavage came out at 0.06.

GGCAGAGCUCAACACAGCGUGGCAAAGUGGCUGUGCCCAGACUGCC [G36C U38C]: the self-cleavage is 0.05.

For GGCAGAGCUCAACACAGCGUGGCAAAGUGGCUGUGCCGAGACUGCC [G36C U38G], the self-cleavage was determined as 0.02.

As for GGCAGAGCUCAACACAGCGUGGCAAAGUGGCUGUGCCAAGACUGCC [G36C U38A], the self-cleavage worked out at 0.06.

GGCAGAGCUCAACACAGCGUGGCAAAGUGGCUGUUGCUAGACUGCC [G35U]: the self-cleavage is 0.16.

As for GGCAGAGCUCAACACAGCGUGGCAAAGUGGCUGUGACGAGACUGCC [G36A U38G], the self-cleavage was 0.03.

As for GGCAGAGCUCAACACAGCGUGGCAAAGUGGCUGUGACAAGACUGCC [G36A U38A], the self-cleavage was 0.08.

On to GGCAGAGCUCAACACAGCGUGGCAAAGUGGCUGUGACCAGACUGCC [G36A U38C], for which the self-cleavage worked out at 0.12.

For GGCAGAGCUCAACACAGCGUGGCAAAGUGGCUGUUGCUAGACUGAC [G35U C45A], the self-cleavage worked out at 0.12.

Regarding GGCAGAGCUCAACACAGCGUGGCAAAGUGGCUGUUGCUAGACUGUC [G35U C45U], the self-cleavage was found to be 0.12.

For GGCAGAGCUCAACACAGCGUGGCAAAGUGGCUGUUGCUAGACUGGC [G35U C45G], the self-cleavage is 0.07.

Turning to GGCAGAGCUCAACACAGCGUGGCAAAGUGGCUGUGCUUAGACUGCC [G36C C37U], the self-cleavage amounted to 0.06.

For the variant GGCAGAGCUCAACACAGCGUGGCAAAGUGGCUGUGCGUAGACUGCC [G36C C37G], the self-cleavage came to 0.07.

Take GGCAGAGCUCAACACAGCGUGGCAAAGUGGCUGUGCAUAGACUGCC [G36C C37A]: the self-cleavage was 0.1.

GGCAGAGCUCAACACAGCGUGGCAAAGUGGCUGUGACUAGAAUGCC [G36A C42A]: the self-cleavage stood at 0.16.

As to GGCAGAGCUCAACACAGCGUGGCAAAGUGGCUGUGACUAGAGUGCC [G36A C42G], the self-cleavage worked out at 0.07.

As for GGCAGAGCUCAACACAGCGUGGCAAAGUGGCUGUGACUAGAUUGCC [G36A C42U], the self-cleavage is 0.15.

As for GGCAGAGCUCAACACAGCGUGGCAAAGUGGCUGUGACUAGACUGAC [G36A C45A], the self-cleavage came to 0.14.

For the variant GGCAGAGCUCAACACAGCGUGGCAAAGUGGCUGUGACUAGACUGUC [G36A C45U], the self-cleavage was determined as 0.8.

For the variant GGCAGAGCUCAACACAGCGUGGCAAAGUGGCUGUGACUAGACUGGC [G36A C45G], the self-cleavage is 0.13.

On to GGCAGAGCUCAACACAGCGUGGCAAAGUGGCUGUGAGUAGACUGCC [G36A C37G], for which the self-cleavage turned out to be 0.05.

As to GGCAGAGCUCAACACAGCGUGGCAAAGUGGCUGUGAUUAGACUGCC [G36A C37U], the self-cleavage came to 0.31.

Consider GGCAGAGCUCAACACAGCGUGGCAAAGUGGCUGUGAAUAGACUGCC [G36A C37A], for which the self-cleavage worked out at 0.11.

For GGCAGAGCUCAACACAGCGUGGCAAAGUGGCUGUGUAUAGACUGCC [G36U C37A], the self-cleavage is 0.05.

Regarding GGCAGAGCUCAACACAGCGUGGCAAAGUGGCUGUGUGUAGACUGCC [G36U C37G], the self-cleavage amounted to 0.05.

Take GGCAGAGCUCAACACAGCGUGGCAAAGUGGCUGUGUUUAGACUGCC [G36U C37U]: the self-cleavage is 0.03.

With GGCAGAGCUCAACACAGCGUGGCAAAGUGGCUGUGCCUAGACCGCC [G36C U43C], the self-cleavage stood at 0.04.

Take GGCAGAGCUCAACACAGCGUGGCAAAGUGGCUGUGCCUAGACAGCC [G36C U43A]: the self-cleavage worked out at 0.08.
